B1: ferric pyochelin transporter FptA (receptor)
chain: DARKDGETELPDMVISGESTSATQPPGVTTLGKVPLKPRELPQSASVIDHERLEQQNLFSLDEAMQQATGVTVQPFQLLTTAYYVRGFKVDSFELDGVPALLGNTASSPQDMAIYERVEILRGSNGLLHGTGNPAATVNLVRKRPQREFAASTTLSAGRWDRYRAEVDVGGPLSASGNVRGRAVAAYEDRDYFYDVADQGTRLLYGVTEFDLSPDTLLTVGAQYQHIDSITNMAGVPMAKDGSNLGLSRDTYLDVDWDRFKWDTYRAFGSLEQQLGGGWKGKVSAEYQEADSRLRYAGSFGAIDPQTGDGGQLMGAAYKFKSIQRSLDANLNGPVRLFGLTHELLGGVTYAQGETRQDTARFLNLPNTPVNVYRWDPHGVPRPQIGQYTSPGTTTTTQKGLYALGRIKLAEPLTLVVGGRESWWDQDTPATRFKPGRQFTPYGGLIWDFARDWSWYVSYAEVYQPQADRQTWNSEPLSPVEGKTYETGIKGELADGRLNLSLAAFRIDLENNPQEDPDHPGPPNNPFYISGGKVRSQGFELEGTGYLTPYWSLSAGYTYTSTEYLKDSQNDSGTRYSTFTPRHLLRLWSNYDLPWQDRRWSVGGGLQAQSDYSVDYRGVSMRQGGYALVNMRLGYKIDEHWTAAVNVNNLFDRTYYQSLSNPNWNNRYGEPRSFNVSLRGAF

Key:
Conditions in all cases: both partners purified
[1] = target: B1; assay: native MS
[2] = target: B1; assay: SPR
PyoS5_(1–315) Δ10–13 = target: T1, PyoS5_(1–315) Δ10–13 (P. aeruginosa, UniProt Q9I4Y4 1-315, Δ10–13); assay: SPR
T1 construct: source: E. coli BL21(DE3), purified (HisTrap HP, Superdex 200 SEC)

PyoS5_(1–315) Δ2–39 = target: T2, PyoS5_(1–315) Δ2–39 (P. aeruginosa, UniProt Q9I4Y4 1-315, Δ2–39); assay: SPR
T2 construct: source: E. coli BL21(DE3), purified (HisTrap HP, Superdex 200 SEC)

PyoS5_(1–315) Δ2–9 = target: T3, PyoS5_(1–315) Δ2–9 (P. aeruginosa, UniProt Q9I4Y4 1-315, Δ2–9); assay: SPR
T3 construct: source: E. coli BL21(DE3), purified (HisTrap HP, Superdex 200 SEC)

| Binder | binding result [1] | Kd [2] | also measured |
| --- | --- | --- | --- |
| Pyocin S5 (natural protein) MSNDNEVPGSMVIVAQGPDDQYAYEVPPIDSAAVAGNMFGDLIQREIYLQKNIYYPVRSIFEQGTKEKKEINKKVSDQVDGLLKQITQGKREATRQERVDVMSAVLHKMESDLEGYKKTFTKGPFIDYEKQSSLSIYEAWVKIWEKNSWEERKKYPFQQLVRDELERAVAYYKQDSLSEAVKVLRQELNKQKALKEKEDLSQLERDYRTRKANLEMKVQSELDQAGSALPPLVSPTPEQWLERATRLVTQAIADKKQLQTTNNTLIKNSPTPLEKQKAIYNGELLVDEIASLQARLVKLNAETTRRRTEAERKAAEEQALQDAIKFTADFYKEVTEKFGARTSEMARQLAEGARGKNIRSSAEAIKSFEKHKDALNKKLSLKDRQAIAKAFDSLDKQMMAKSLEKFSKGFGVVGKAIDAASLYQEFKISTETGDWKPFFVKIETLAAGAAASWLVGIAFATATATPIGILGFALVMAVTGAMIDEDLLEKANNLVISI | binds |  |  |
| PyoS5_(1–299) (domain or fragment) MSNDNEVPGSMVIVAQGPDDQYAYEVPPIDSAAVAGNMFGDLIQREIYLQKNIYYPVRSIFEQGTKEKKEINKKVSDQVDGLLKQITQGKREATRQERVDVMSAVLHKMESDLEGYKKTFTKGPFIDYEKQSSLSIYEAWVKIWEKNSWEERKKYPFQQLVRDELERAVAYYKQDSLSEAVKVLRQELNKQKALKEKEDLSQLERDYRTRKANLEMKVQSELDQAGSALPPLVSPTPEQWLERATRLVTQAIADKKQLQTTNNTLIKNSPTPLEKQKAIYNGELLVDEIASLQARLVKL | binds |  |  |
| PyoS5_(1–315) (domain or fragment, source: E. coli BL21(DE3), purified (HisTrap HP, Superdex 200 SEC)) MSNDNEVPGSMVIVAQGPDDQYAYEVPPIDSAAVAGNMFGDLIQREIYLQKNIYYPVRSIFEQGTKEKKEINKKVSDQVDGLLKQITQGKREATRQERVDVMSAVLHKMESDLEGYKKTFTKGPFIDYEKQSSLSIYEAWVKIWEKNSWEERKKYPFQQLVRDELERAVAYYKQDSLSEAVKVLRQELNKQKALKEKEDLSQLERDYRTRKANLEMKVQSELDQAGSALPPLVSPTPEQWLERATRLVTQAIADKKQLQTTNNTLIKNSPTPLEKQKAIYNGELLVDEIASLQARLVKLNAETTRRRTEAERKAA |  | 6.5 ± 0.4 µM |  |
| PyoS5_(1–196) (domain or fragment, source: E. coli BL21(DE3), purified (HisTrap HP, Superdex 200 SEC)) MSNDNEVPGSMVIVAQGPDDQYAYEVPPIDSAAVAGNMFGDLIQREIYLQKNIYYPVRSIFEQGTKEKKEINKKVSDQVDGLLKQITQGKREATRQERVDVMSAVLHKMESDLEGYKKTFTKGPFIDYEKQSSLSIYEAWVKIWEKNSWEERKKYPFQQLVRDELERAVAYYKQDSLSEAVKVLRQELNKQKALKE |  | 7.1 ± 0.7 µM |  |
| B1 |  |  | binding result (PyoS5_(1–315) Δ10–13): binds; Kd (PyoS5_(1–315) Δ2–39): 14.7 ± 0.4 µM; binding result (PyoS5_(1–315) Δ2–9): binds |

Source: publication PMC7064778 (mBio, 2020)
